Measured values from patent publication US20220127350A1 (NUMAB THERAPEUTICS, published 2022).

Key:
human IL-17A [1] = molecular target: T1, human IL-17A (human, UniProt Q16552 24-155); assay: competitive ELISA: IL-17RA coated, biotinylated IL-17A preincubated with scFv
T1 construct: Recombinant human IL-17A (Peprotech Cat. No. 200-17), disulfide-linked homodimer from E. coli; Biotinylated or RPE-labelled in some assays; also called hIL-17A; IL-17A-RPE (labelled)
Procedure: Finally, Tetramethylbenzidin solution (KPL, Cat. No. 53-00-00) was added to develop the plate for 5 to 10 minutes and the reaction was stopped with 1 M HCl. The plate was read using a microtiter plate reader (Infinity reader M200 Pro, Tecan) at a wavelength of 450 nm and 570 nm (reference wavelength).

cynomolgus monkey IL-17A [2] = molecular target: T2, cynomolgus monkey IL-17A (Macaca fascicularis (cynomolgus monkey)); assay: SPR (Biacore T200)
T2 construct: also called cyno IL-17A; cyno IL17A
Procedure: (§1) After each analyte injection cycle the CAP sensor chip was regenerated and new antigen was captured. The scFvs were injected as analyte using a dose response multi-cycle kinetic assay with concentrations of the analyte ranging from 0.35 to 90 nM diluted in running buffer. Obtained sensorgrams were fitted using the 1:1 binding model. In addition, the scFvs were analyzed in an alternative SPR assay setup (“direct setup”).

human IL-17A [3] = molecular target: T1, human IL-17A; assay: SPR (Biacore T200), direct setup: IL-17A amine-coupled on CM5, scFv as analyte
Procedure: as §1

human IL-17A [4] = molecular target: T1, human IL-17A; assay: cell-based or functional assay
human IL-17A [5] = molecular target: T1, human IL-17A; assay: SPR (Biacore T200), capture setup: biotinylated IL-17A captured, scFv as analyte
Procedure: as §1

cynomolgus monkey IL-17A [6] = molecular target: T2, cynomolgus monkey IL-17A; assay: SPR (Biacore T200), cynomolgus IL-17A, scFv as analyte
Procedure: as §1

human IL-17A [7] = molecular target: T1, human IL-17A; assay: SPR (summary table), affinity to human IL-17, capture setup
Procedure: (§2) In this experiment, the biotinylated antigens were captured using the Biotin-CAPture kit from Biacore. After each analyte injection cycle the CAP sensor chip was regenerated and new antigen was captured. Trispecific molecules were injected as analyte using a dose response multicycle kinetic assay with concentrations of the analyte ranging from 0.35 to 90 nM diluted in running buffer. Obtained sensorgrams were fitted using the 1:1 binding model.

human serum albumin [8] = molecular target: T3, human serum albumin (human, UniProt P02768 25-609); assay: SPR (MASS-1), HSA immobilised, trispecific as analyte, pH 5.5
T3 construct: also called HSA
Procedure: (§3) The binding to human serum albumin (HSA) and cynomolgus serum albumin (CSA) was assessed for purified trispecific molecules by running SPR spectroscopy on a MASS-1 device (Sierra Sensors). HSA was directly immobilized on a high capacity amine sensor chip (Sierra Sensors) and trispecific molecules were injected as analyte using a dose response multicycle kinetic assay with concentrations of the analyte ranging from 0.35 to 90 nM diluted either in running buffer at pH5.5 or pH7.5. Obtained sensorgrams were fitted using the 1:1 binding model. Affinity to CSA was assessed in a similar approach using a CSA immobilized sensor chip.

human TNFα [9] = molecular target: T4, human TNFα (human, UniProt P01375 77-233); assay: SPR (summary table), affinity to human TNF
T4 construct: Biotinylated in the Biacore assay
Procedure: as §2

human TNFα [10] = molecular target: T4, human TNFα; assay: cell-based or functional assay
human IL-17A [11] = molecular target: T1, human IL-17A; assay: competitive ELISA: IL-17RA coated, biotinylated IL-17A preincubated with trispecific molecule
Procedure: (§4) Finally, Tetramethylbenzidine solution was added to develop the plate for 5 to 10 minutes and the reaction was stopped with 1 M HCl. The plate was read at 450 nm and 570 nm (reference wavelength).

human serum albumin [12] = molecular target: T3, human serum albumin; assay: SPR (summary table), affinity to HSA at pH 5.5
Procedure: as §3

human IL-17A [13] = molecular target: T1, human IL-17A; assay: competitive ELISA, blocking of IL-17A/IL-17RA interaction (summary table)
Procedure: as §4

human TNFα [14] = molecular target: T4, human TNFα; assay: SPR (MASS-1), trispecific immobilised, antigens injected sequentially
Procedure: (§5) All possible sequences of antigen injection were tested resulting in six possible sequences.
(§6) To evaluate concomitant binding of each antigen to trispecific molecules, the binding level relative to the theoretical Rmax was calculated for each injection using the respective ligand and analyte molecular masses and the immobilization level of the trispecific molecules. The average of the maximum binding relative to theoretical Rmax for each antigen was obtained by averaging individual maximum binding relative to theoretical Rmax obtained for the two injections where the respective antigen was injected as first analyte (in the absence of other bound antigens). Next, the binding relative to the theoretical Rmax of each analyte injection was compared to its average maximum binding to calculate the fraction binding obtained in the presence of other bound antigens. […] The binding levels relative to the theoretical Rmax and the average of maximum binding (binding levels in the absence of other antigens) of each antigen were calculated.

human IL-17A [15] = molecular target: T1, human IL-17A; assay: as above
Procedure: as §5, §6

human serum albumin [16] = molecular target: T3, human serum albumin; assay: as above
Procedure: as §5, §6

human TNFα [17] = molecular target: T4, human TNFα; assay: SPR (Biacore T200), biotinylated antigen captured (Biotin-CAPture), trispecific as analyte;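 further: multicycle dose-response kinetics, analyte at 0.35–90 nM in running buffer, CAP chip regenerated with fresh antigen each cycle, sensorgrams fitted to a 1:1 binding model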
Procedure: as §2

human IL-17A [18] = molecular target: T1, human IL-17A; assay: as above
Procedure: as §2

human serum albumin [19] = molecular target: T3, human serum albumin; assay: SPR (MASS-1), HSA immobilised, trispecific as analyte, pH 7.4
Procedure: as §3

human TNFα [20] = molecular target: T4, human TNFα; assay: cell-based or functional assay; remark: listed apart in the source
human IL-17A [21] = molecular target: T1, human IL-17A; assay: cell-based or functional assay; remark: listed apart in the source
human IL-17A [22] = molecular target: T1, human IL-17A; assay: competitive ELISA: biotinylated human IL-17A preincubated with the trispecific molecule, then binding to coated IL-17RA detected (blocked ligand: IL-17RA) [left panel]
human serum albumin [23] = molecular target: T3, human serum albumin; assay: SPR (MASS-1), trispecific immobilised, HSA injected as last analyte
Procedure: as §5, §6

Binder	Kd (human IL-17A [7])	Kd (human serum albumin [8])	koff (human serum albumin [8])	kon (human serum albumin [8])	Kd (human TNFα [9])	IC50 in L929 assay, cell viability (human TNFα [10])	rel. IC50 in L929 assay (IC50, A13/IC50, test sample, nM) (human TNFα [10])	rel. IC50 to secukinumab (IC50, secukinumab/IC50, test sample, ng/ml) (human IL-17A [11])	Kd (human serum albumin [12])	rel. IC50 (IC50, secukinumab/IC50, test sample, ng/ml) (human IL-17A [13])	antigen binding relative to average maximum binding (human TNFα [14])	antigen binding relative to average maximum binding (human IL-17A [15])	antigen binding relative to average maximum binding (human serum albumin [16])	Kd (human TNFα [17])	koff (human TNFα [17])	kon (human TNFα [17])	Kd (human IL-17A [18])	koff (human IL-17A [18])	kon (human IL-17A [18])	Kd (human serum albumin [19])	other results
A2 (humanized anti-IL-17A scFv, STR graft of 27-07-G02) (scFv, VL-linker-VH; also called 27-07-G02-sc02) scFv: DIQMTQSPSSLSASVGDRVTITCQASQTINYWLAWYQQKPGKPPKLLIYRASTLASGVPSRFSGSGSGTDFTLTISSLQPEDFATYYCQNYYYSTSRSYGFGGGTKLTVLGGGGGSGGGGSGGGGSGGGGSEVQLVESGGGLVKPEGSLRLSCAASGFSFSSDYWMCWVRQAPGKGLEWIACIYAGDVDDTDYASWARGRFTISRDNSKNTVYLQMNSLRAEDTAVYYCARVDGFDITYFDLWGQGTLVTVSS																					IC50 (human IL-17A [1]): 1.6 ng/mL; KD, cyno/KD, human (cynomolgus monkey IL-17A [2]): 1.69; Kd (human IL-17A [3]): 0.0551 nM; koff (human IL-17A [3]): 5.92e-05 s⁻¹; kon (human IL-17A [3]): 1.08e+06 M⁻¹ s⁻¹; IC50 in HT-29 assay, GRO-α secretion (human IL-17A [4]): 0.1 ng/mL; Kd (human IL-17A [5]): 3.07 nM; koff (human IL-17A [5]): 0.000697 s⁻¹; kon (human IL-17A [5]): 227000 M⁻¹ s⁻¹; Kd (cynomolgus monkey IL-17A [6]): 5.19 nM; koff (cynomolgus monkey IL-17A [6]): 0.000868 s⁻¹; kon (cynomolgus monkey IL-17A [6]): 167000 M⁻¹ s⁻¹
A3 (trispecific tribody, Fab-(scFv)2) (other, Trispecific anti-IL-17A x TNFα x HSA tribody; Expressed in CHO-S) light: DIQMTQSPSSLSASVGDRVTITCQSSESVYSNNQLSWYQQKPGQPPKLLIYDASDLASGVPSRFSGSGSGTDFTLTISSLQPEDFATYYCAGGFSSSSDTAFGGGTKLTVLGRTRTVAAPSVFIFPPSDEQLKSGTASVVCLLNNFYPREAKVQWKVDNALQSGNSQESVTEQDSKDSTYSLSSTLTLSKADYEKHKVYACEVTHQGLSSPVTKSFNRGECGGGGSGGGGSDIQMTQSPSSLSASVGDRVTINCQASESISSWLAWYQQKPGKRPKLLIYKASTLASGVPSRFSGSGSGTDYTLTISSLQPEDFATYYCQGYYLDSSVDDNVFGGGTKLTVLGGGGGSGGGGSGGGGSGGGGSEVQLVESGGGLVQPGGSLRLSCAASGIDFSTYGISWVRQAPGKGLEWIAYIYPDYGITDYASWVNGRFTISLDNAQNTVYLQMNSLRAEDTAVYYCARSGSYYSRGWGAHYFNLWGQGTLVTVSS heavy: EVQLVESGGGLVQPGGSLRLSCAASGFSLSSNAMGWVRQAPGKGLEYIGIISVGGFTYYASWAKGRFTISRDNSKNTVYLQMNSLRAEDTATYFCARDRHGGDSSGAFYLWGQGTLVTVSSASTKGPSVFPLAPSSKSTSGGTAALGCLVKDYFPEPVTVSWNSGALTSGVHTFPAVLQSSGLYSLSSVVTVPSSSLGTQTYICNVNHKPSNTKVDKKVEPKSCGGGGSGGGGSDIQMTQSPSSLSASVGDRVTITCQASQTINYWLAWYQQKPGKAPKLLIYRASTLASGVPSRFSGSGSGTDFTLTISSLQPEDFATYYCQNYYYSTSRSYGFGGGTKLTVLGGGGGSGGGGSGGGGSGGGGSEVQLVESGGGLVQPGGSLRLSCAASGFSFSSDYWMCWVRQAPGKGLEWIGCIYAGDVDDTDYASWARGRFTISRDNSKNTVYLQMNSLRAEDTAVYYCARVDGFDITYFDLWGQGTLVTVSS	1.53 nM	0.947 nM	0.00059 s⁻¹	623000 M⁻¹ s⁻¹	< 0.0232 nM	4.5 nM	0.003	2.2	0.947 nM	2.2	≥ 70%	≥ 70%	≥ 70%	< 0.0232 nM	< 1e-06 s⁻¹	43100 M⁻¹ s⁻¹	1.53 nM	9.04e-05 s⁻¹	59100 M⁻¹ s⁻¹	1.37 nM	koff (human serum albumin [19]): 0.000557 s⁻¹; kon (human serum albumin [19]): 406000 M⁻¹ s⁻¹; rel. IC50 to A13 (nM) in HT-29 assay, +HSA (human TNFα [20]): 0.5; rel. IC50 to A13 (nM) in HT-29 assay, -HSA (human TNFα [20]): 0.2; rel. IC50 to secukinumab (ng/ml) in HT-29 assay, +HSA (human IL-17A [21]): 11.8; rel. IC50 to secukinumab (ng/ml) in HT-29 assay, -HSA (human IL-17A [21]): 2.4; IC50 (read off the curve) (human IL-17A [22]): ~9 ng/mL
A4 (trispecific tribody, Fab-(scFv)2) (other, Trispecific tribody) light: DIQMTQSPSSLSASVGDRVTITCQASQTINYWLAWYQQKPGKAPKLLIYRASTLASGVPSRFSGSGSGTDFTLTISSLQPEDFATYYCQNYYYSTSRSYGFGGGTKLTVLGRTRTVAAPSVFIFPPSDEQLKSGTASVVCLLNNFYPREAKVQWKVDNALQSGNSQESVTEQDSKDSTYSLSSTLTLSKADYEKHKVYACEVTHQGLSSPVTKSFNRGECGGGGSGGGGSDIQMTQSPSSLSASVGDRVTINCQASESISSWLAWYQQKPGKRPKLLIYKASTLASGVPSRFSGSGSGTDYTLTISSLQPEDFATYYCQGYYLDSSVDDNVFGGGTKLTVLGGGGGSGGGGSGGGGSGGGGSEVQLVESGGGLVQPGGSLRLSCAASGIDFSTYGISWVRQAPGKGLEWIAYIYPDYGITDYASWVNGRFTISLDNAQNTVYLQMNSLRAEDTAVYYCARSGSYYSRGWGAHYFNLWGQGTLVTVSS heavy: EVQLVESGGGLVQPGGSLRLSCAASGFSFSSDYWMCWVRQAPGKGLEWIGCIYAGDVDDTDYASWARGRFTISRDNSKNTVYLQMNSLRAEDTAVYYCARVDGFDITYFDLWGQGTLVTVSSASTKGPSVFPLAPSSKSTSGGTAALGCLVKDYFPEPVTVSWNSGALTSGVHTFPAVLQSSGLYSLSSVVTVPSSSLGTQTYICNVNHKPSNTKVDKKVEPKSCGGGGSGGGGSDIQMTQSPSSLSASVGDRVTITCQSSESVYSNNQLSWYQQKPGQPPKLLIYDASDLASGVPSRFSGSGSGTDFTLTISSLQPEDFATYYCAGGFSSSSDTAFGGGTKLTVLGGGGGSGGGGSGGGGSGGGGSEVQLVESGGGLVQPGGSLRLSCAASGFSLSSNAMGWVRQAPGKGLEYIGIISVGGFTYYASWAKGRFTISRDNSKNTVYLQMNSLRAEDTATYFCARDRHGGDSSGAFYLWGQGTLVTVSS	0.337 nM	1.67 nM	0.000308 s⁻¹	185000 M⁻¹ s⁻¹	0.257 nM	0.08 nM	0.2	6.3	1.67 nM	6.3	≥ 70%	≥ 70%	≥ 70%	0.257 nM	2.33e-05 s⁻¹	90800 M⁻¹ s⁻¹	0.337 nM	7.23e-05 s⁻¹	215000 M⁻¹ s⁻¹	4.79 nM	koff (human serum albumin [19]): 0.000417 s⁻¹; kon (human serum albumin [19]): 87200 M⁻¹ s⁻¹; relative binding level compared to average maximum binding (human serum albumin [23]): ~70%; rel. IC50 to A13 (nM) in HT-29 assay, +HSA (human TNFα [20]): 0.3; rel. IC50 to A13 (nM) in HT-29 assay, -HSA (human TNFα [20]): 0.6; rel. IC50 to secukinumab (ng/ml) in HT-29 assay, +HSA (human IL-17A [21]): 6; rel. IC50 to secukinumab (ng/ml) in HT-29 assay, -HSA (human IL-17A [21]): 7.1; IC50 (read off the curve) (human IL-17A [22]): ~3 ng/mL
